The Kd is the constant that tells how readily two partners part at equilibrium. Read a high Kd as a looser complex.

Here are results for 13 substances from US20140370021A1.

The target in experiment [1] is extracellular region of human R131 FcγRIIa, GST-tagged (human) (UniProt P12318). The experiment in a line: AlphaScreen competition: the antibody displaces biotinylated WT antibody (donor beads) from GST-tagged human R131 FcγRIIa (acceptor beads). In general terms: In Alpha technology, singlet oxygen from a donor bead excites a nearby acceptor bead.
Experiment [2] concerns the target extracellular region of human V158 FcγRIIIa fused with glutathione S-transferase (GST) (human) (UniProt P08637). As to the kind of experiment: AlphaScreen competition as in Example 2 (biotinylated WT antibody on donor beads, GST-tagged human V158 FcγRIIIa on acceptor beads); Fc variants in the context of trastuzumab.
Experiment [3] addresses F158 FcγRIIIa as used in SPR (UniProt P08637). As to the kind of experiment: SPR. A general note: SPR reads the build-up and loss of mass on a sensor chip optically.
For a further experiment, the target named is His-tagged V158 FcγRIIIa (UniProt P08637). As to the kind of experiment: SPR, receptor immobilized.
The target in experiment [4] is extracellular region of human V158 FcγRIIIa fused with glutathione S-transferase (GST) (human) (UniProt P08637). As to the kind of experiment: AlphaScreen competition.
The target of the next experiment is bacterial protein A (UniProt P38507). The experiment in a line: AlphaScreen competition: the antibody displaces biotinylated WT alemtuzumab (donor beads) from protein A coupled directly to acceptor beads.
Experiment [5] addresses FcγRIIIa on human PBMCs, heterozygous V158/F158 (human) (UniProt P08637). The experiment in a line: cell-based or functional assay.

As for S239D/A330L/I332E (antibody), in experiment [1], the IC50 (read off the curve) amounted to 7 nM. Same read-out and setting: under S239D/A330Y/I332E (antibody) stands 3 nM; under S239D/S298A/I332E (antibody), 4 nM; under S239N/A330Y/I332E (antibody), 6 nM. For the substance S239N/I332E (antibody), in experiment [2], the IC50 (read off the curve) came out at 0.7 nM. With “WT alemtuzumab (Campath), IgG1, expressed in 293T cells (antibody)”, the Kd came to 730 nM in experiment [3] and 68 nM with His-tagged V158 FcγRIIIa. Substance “alemtuzumab Fc variant 192 (V264E/N297D/I332E by Table 60; printed V264I/N297D/I332E in Table 61) (antibody)” displayed a FcγRIIIa Fold in experiment [4] of 0.05 fold vs WT.

As to alemtuzumab I332E (antibody), the Kd in experiment [3] amounted to 72 nM; with His-tagged V158 FcγRIIIa, 31 nM. In addition, the IC50 (read off the curve) in the experiment with bacterial protein A was 1e-09 2M.

For alemtuzumab S239D/I332E (antibody), in experiment [5], the ADCC EC50 came out at 3 ng/mL and the ADCC log(EC50) was 0.49 log(ng/ml). The same substance displayed an IC50 (read off the curve) in experiment [1] of 3 nM.

Regarding alemtuzumab S298A (antibody), the equilibrium dissociation constant (Kd) in experiment [3] stood at 285 nM; in the experiment with His-tagged V158 FcγRIIIa it was 52 nM.

Take “alemtuzumab S298A/E333A/K334A (antibody)”: the results for the dissociation constant Kd (in experiment [3]; in the experiment with His-tagged V158 FcγRIIIa) were 156 nM and 39 nM, respectively. alemtuzumab V264I (antibody): the equilibrium dissociation constant (Kd) is 550 nM in experiment [3] and 64 nM in the experiment with His-tagged V158 FcγRIIIa. In the experiment with bacterial protein A, the IC50 (read off the curve) was 1e-09 2M. For the substance alemtuzumab V264I/I332E (antibody), the Kd in experiment [3] was 52 nM; with His-tagged V158 FcγRIIIa it was 17 nM. The ADCC EC50 in experiment [5] stood at 4 ng/mL. In addition, the ADCC log(EC50) in experiment [5] is 0.6 log(ng/ml).
